According to patent US20200215180A1:

Key:
[1] = target: Hyperglycosylated dengue-3 exodomain (HX), insect (Tni) cell expressed (dengue virus serotype 3) (UniProt Q6YMS4); assay: ELISA
[2] = target: wild-type insect cell expressed Zika exodomain antigen (Zika virus); assay: ELISA
[3] = target: Hyperglycosylated exodomain D1 (from pCRO21), HEK293-expressed (dengue virus serotype 1) (UniProt P27909); assay: ELISA
[4] = target: Hyperglycosylated dengue-2 exodomain (HX), insect (Tni) cell expressed (dengue virus serotype 2) (UniProt P18356); assay: ELISA
[5] = target: Hyperglycosylated exodomain D3 (from pCRO23), HEK293-expressed (dengue virus serotype 3) (UniProt Q6YMS4); assay: ELISA
[6] = target: Hyperglycosylated exodomain D2 (from pCRO22), HEK293-expressed (dengue virus serotype 2) (UniProt P18356); assay: ELISA
[7] = target: Hyperglycosylated exodomain D4 (from pCRO24), HEK293-expressed (dengue virus serotype 4) (UniProt P09866); assay: ELISA
[8] = target: Hyperglycosylated dengue-4 exodomain (HX), insect (Tni) cell expressed (dengue virus serotype 4) (UniProt P09866); assay: ELISA
[9] = target: Hyperglycosylated dengue-1 exodomain (HX), insect (Tni) cell expressed (dengue virus serotype 1) (UniProt P27909); assay: ELISA
[10] = target: Hyperglycosylated exodomain Zika (from pCRO28), HEK293-expressed (Zika virus); assay: ELISA
[11] = target: Hyperglycosylated Zika exodomain (HX), insect (Tni) cell expressed (Zika virus); assay: ELISA
VLPs = assay: competition ELISA, 4G2 in solution phase at 10 micrograms per ml

Row | Substance | absorbance [1] [absorbance] | absorbance [2] [absorbance] | absorbance [3] [absorbance] | absorbance [4] [absorbance] | absorbance [5] [absorbance] | absorbance [6] [absorbance] | absorbance [7] [absorbance] | absorbance [8] [absorbance] | absorbance [9] [absorbance] | absorbance [10] [absorbance] | absorbance [11] [absorbance] | % inhibition (VLPs) [%]
1 | ZKA78 (antibody) | 0 | 1.4 | 0 | 0 | 0 | 0 | 0 | 0 | 0 | 0 | 0 | –
2 | ZV48 anti-Zika neutralizing antibody (The Native Antigen Company MAB12124) | 0 | 1.1 | 0 | 0 | 0 | 0 | 0 | 0 | 0 | 1.2 | 1.1 | –
3 | ZV67 anti-Zika neutralizing antibody (The Native Antigen Company MAB12125) | 0.1 | 1.2 | 0.1 | 0.1 | 0 | 0 | 0 | 0.1 | 0.1 | 1.1 | 1.5 | –
4 | Aalto Bioreagents anti-Zika antibody AZ1176-0302156-Lot3889 | 0.3 | 1 | 0.1 | 0.1 | 0.1 | 0.1 | 0.1 | 0.1 | 0.2 | 3.1 | 2 | –
5 | ZKA64 (antibody) | 0.2 | 0.8 | 0.1 | 0.2 | 0.1 | 0.1 | 0.1 | 0.1 | 0.2 | 0.9 | 0.7 | –
6 | fusion-loop antibody 4G2 (The Native Antigen Company AbFLAVENV-4G2) | 0.1 | 0.9 | 0.1 | 0.1 | 0.1 | 0.1 | 0.1 | 0.1 | 0.1 | 0.1 | 0.1 | 80
